In paper PMC5394417, “Investigating the molecular mechanism of positive and negative allosteric modulators in the calcium-sensing receptor dimer” (Scientific Reports, 2017):

Target: the molecule itself
Experiment: FRET or BRET; TR-FRET dimerization assay on transiently transfected HEK293T cells co-expressing an HA-tagged and a myc-tagged construct (1:1); Tb3+-conjugated anti-HA antibody (donor, 1 nM) and d2-conjugated anti-myc antibody (acceptor, 50 nM), 24 h at 4 °C; HBSS, 20 mM HEPES, 0.5 mM CaCl2, 0.5 mM MgCl2, 5 mg/mL bovine serum albumin, pH 7.4; FRET ratio (665 nm/615 nm) normalized to pEGFPN1

Row | Protein | fold increase in FRET signal
1 | rat calcium-sensing receptor, wild type (receptor, UniProt P48442 20-1079, looked up, calcium-sensing receptor (CaSR), rat; Each copy carries one tag only, HA or myc; the two differently tagged copies were co-expressed; The mGluR5 signal peptide stands upstream of the tag; also called CaSR; WT HA-CaSR; source: HEK293T, transiently transfected (Lipofectamine 2000), on cells; not shown: HA (one copy), N-terminal, kept; myc (the other copy), N-terminal, kept) YGPDQRAQKKGDIILGGLFPIHFGVAAKDQDLKSRPESVECIRYNFRGFRWLQAMIFAIEEINSSPSLLPNMTLGYRIFDTCNTVSKALEATLSFVAQNKIDSLNLDEFCNCSEHIPSTIAVVGATGSGVSTAVANLLGLFYIPQVSYASSSRLLSNKNQYKSFLRTIPNDEHQATAMADIIEYFRWNWVGTIAADDDYGRPGIEKFREEAEERDICIDFSELISQYSDEEEIQQVVEVIQNSTAKVIVVFSSGPDLEPLIKEIVRRNITGRIWLASEAWASSSLIAMPEYFHVVGGTIGFGLKAGQIPGFREFLQKVHPRKSVHNGFAKEFWEETFNCHLQEGAKGPLPVDTFVRSHEEGGNRLLNSSTAFRPLCTGDENINSVETPYMDYEHLRISYNVYLAVYSIAHALQDIYTCLPGRGLFTNGSCADIKKVEAWQVLKHLRHLNFTNNMGEQVTFDECGDLVGNYSIINWHLSPEDGSIVFKEVGYYNVYAKKGERLFINEEKILWSGFSREVPFSNCSRDCQAGTRKGIIEGEPTCCFECVECPDGEYSGETDASACDKCPDDFWSNENHTSCIAKEIEFLAWTEPFGIALTLFAVLGIFLTAFVLGVFIKFRNTPIVKATNRELSYLLLFSLLCCFSSSLFFIGEPQDWTCRLRQPAFGISFVLCISCILVKTNRVLLVFEAKIPTSFHRKWWGLNLQFLLVFLCTFMQILICIIWLYTAPPSSYRNHELEDEIIFITCHEGSLMALGSLIGYTCLLAAICFFFAFKSRKLPENFNEAKFITFSMLIFFIVWISFIPAYASTYGKFVSAVEVIAILAASFGLLACIFFNKVYIILFKPSRNTIEEVRSSTAAHAFKVAARATLRRPNISRKRSSSLGGSTGSIPSSSISSKSNSEDRFPQPERQKQQQPLSLTQQEQQQQPLTLHPQQQQQPQQPRCKQKVIFGSGTVTFSLSFDEPQKNAMAHRNSMRQNSLEAQRSNDTLGRHQALLPLQCADADSEMTIQETGLQGPMVGDHQPEMESSDEMSPALVMSTSRSFVISGGGSSVTENVLHS | 11.8 fold
2 | rat GPRC6A, wild type (receptor, UniProt Q70VB1 21-928, looked up, GPRC6A, rat; previously described myc-tagged rat GPRC6A-pEGFPN1 construct with the mGluR5 signal peptide upstream of the myc tag; Each copy carries one tag only, HA or myc; the HA-GPRC6A construct is not described; also called WT myc-GPRC6A; WT HA-GPRC6A; source: HEK293T, transiently transfected (Lipofectamine 2000), on cells; not shown: HA (one copy), N-terminal, kept; myc (the other copy), …) CHTPDDFVAITSPGHIMIGGLFAIHEKMLSSDDHPRQPQIQKCVGFEISVFLQTLAMIHSIEMINNSSLLSGVKLGYEIYDTCTEVTAAMAATLRFLSKFNCSRETVIFQCDYSSYVPRVKAIIGAGYSEISMAVSRMLNLQLMPQVSYESTAEILSDKIRFPSFLRTVPSDFYQTKAMAHLIRQSGWNWVGAITTDDDYGRLALNTFAIQAAENNVCIAFKEVLPAFLSDNTIEVRINQTLEKIIAEAQVNVIVVFLRKFHVFNLFNKAIERKISKIWIASDNWSTAAKIITIPNVKKLGKVVGFTFRRGNMSSFHSFLQTLHMYPSDNNKPLHEFAMLFSACKHIKDGDLSQCISNYSQATWTYDTTKTIETHLFKRNDFLWHYTEPGLIHSIQLAVLALGHAIRDLCQDRDCQKPNAFQPWELLAVLKNVTFTDGKNSFHFDAHGDLNTGYEVVLWKETNGLMTVTKMAEYDLQHDVFITTNQETKHEFRKLKQILSKCSKECIPGQMKKATGSQHSCCYECVNCPENHYSNETDMDHCLVCNNETHWAPVRSTMCFEKEVEYLDWDDSLALLLIALSLLGIAFVLAVGIIFTRNLKTPVVKSSGGLVVCYVMLACHALNFASTGFFIGEPQDFTCKTRQTLFGVSFTLCVSCILTKSLKILLAFSFDPTLKTFLKCLYRPVPIVLTCTGIQVVICTLWLVLAAPTVEENTSLPRVIILECEEGSALAFGTMLGYIAVLAFICFVFAFKGRKLPENYNEAKFLTFGMLIYFIAWITFIPVYATTFGKYLPAVEIIVILISNYGILCCTFFPKCYIILCKQKTNTKSVFLQMVYNYSAHSVDSLALSHVSLDSASHSTATTNPRPGNKTAACQNYKHLPVQVLAHTGMEKTMHASKTLHQKRSSSI | 9.8 fold
